Experimental data as given in patent publication US20090258024A1.

Target: mouse CD147 (mouse) (UniProt P18572)

migration induced by CypA (Boyden chamber chemotaxis) of mouse neutrophils, monocytes and activated CD4+ T cells: > 90%
Substance: Rat anti-mouse CD147 monoclonal antibody purified from the RL73.2 hybridoma
